{"source": "patent US20160264662A1", "about": "(US Dept. of Health and Human Services, published 2016)", "target": "T1, human TEM8 (hTEM8) expressed on CHO or 293 cells (human, UniProt Q9H6X2 33-564)", "T1 construct": "also called CHO TEM8", "T1 sequence (Q9H6X2 33-564 limits assumed)": "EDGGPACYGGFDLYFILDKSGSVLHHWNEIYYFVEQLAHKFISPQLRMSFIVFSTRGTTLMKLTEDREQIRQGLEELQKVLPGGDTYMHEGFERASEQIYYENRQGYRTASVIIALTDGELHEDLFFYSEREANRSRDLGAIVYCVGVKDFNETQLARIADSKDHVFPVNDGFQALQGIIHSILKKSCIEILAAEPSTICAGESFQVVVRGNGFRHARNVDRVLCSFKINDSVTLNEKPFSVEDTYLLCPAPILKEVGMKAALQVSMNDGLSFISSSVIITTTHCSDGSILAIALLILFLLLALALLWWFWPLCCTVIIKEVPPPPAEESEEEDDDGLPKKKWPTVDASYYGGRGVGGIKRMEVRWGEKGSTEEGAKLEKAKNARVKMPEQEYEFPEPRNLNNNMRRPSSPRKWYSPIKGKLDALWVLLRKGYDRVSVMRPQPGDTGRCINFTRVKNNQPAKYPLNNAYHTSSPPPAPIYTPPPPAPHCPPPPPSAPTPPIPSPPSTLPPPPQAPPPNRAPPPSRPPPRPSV", "assay": "cell-based ELISA-type titration of m825-MMAE on CHO cells overexpressing TEM8, with TEM8-negative CHO cells as control; absorbance at 450 nm against Log (ng/well)"}
{"binder": "m825-MMAE conjugate (m825 antibody in human IgG1 format conjugated to MMAE) (other, MMAE with stretcher unit, Val-Cit peptide cleavage site and spacer, attached to thiol groups formed by partial reduction of inter-chain disulfide bonds (positions not stated), also called anti-TEM8-MMAE) VH: QVQLVQSGAEVKKPGTSVKVSCKVPGYTFSSYAISWVRQAPGQGLEWMGGIIPIFGTTNYAQKFQGRVTITGEESTSTVYMELSSLRSEDTAVYYCARDTDYMFDYWGQGTLVTVSS VL: SSELTQDPVVSVALGETVSITCQGDNLRDFYASWYQQKPGQAPLLVMYGKNRRPSGIPDRFSGSTSGNTLSLTITGAQAEDEADYYCSSRDNSKHVVFGGGTKVTVL", "values": [{"measurement": "EC50 (read off the curve)", "result": "~2", "unit": "ng/well"}]}
